The target in data set [1] is T1, GST-Smad2/MH1 (Homo sapiens, UniProt Q15796 Q15796:1-242). The data set is described as follows: EMSA; data not shown. To be noted: tags: GST N-terminal (pGEX2TK, Pharmacia); label: 32P. The method, then:
To evaluate whether the analogous domain of human Smad proteins could bind DNA, GST fusion proteins containing the MH1 domains of Smads 2, 3, and 4 were constructed and expressed in $E. coli$. Electrophoresis mobility shift assays (EMSA) were performed using the purified proteins and labeled oligonucleotides containing the optimal sequence from Vg, essentially as described by Kim et al ). […] However, the binding was relatively inefficient, typically resulting in shifts of less than 5% of the input Vg probe. Several experimental manipulations were employed to increase the efficiency of binding (such as variations of cation, salt concentration, competitor, and other components of the binding buffer) without success.
DNA-binding assays were performed essentially as described except that poly (dI-dC), 6 ug/ml, was used as the only competitor and 2% NP-40 was included in the reaction mix. For binding to PCR products derived from clones (e.g., FIG. 1), 1.0–0.5 ug protein […] and 50 ng of DNA end-labeled to 2×10^6 dpm/ug, was used. For binding to oligonucleotides, 0.3–0.5 ug of protein (~0.4 uM final concentration) and 0.5 ng of DNA end-labeled to 2×10^8 dpm/ug, was used. […] Quantitation of binding was performed using an Instant Imager (Packard).
Background: Mobility shift assays separate free from complexed probe on a gel.

A further data set addresses His6-Smad4 full length (Homo sapiens, UniProt Q13485 Q13485:1-552). The data set is described as follows: EMSA; full-length Smad4. To be noted: tags: His6 (pET33b, Novagen); label: 32P. How it is done:
(§1) (FIG. 2B) The ^32P-labeled SBE probe was incubated with 0.6 ug of a fusion protein containing either the MH1 domain of Smad4 (lane 1) or 0.4–1.6 ug of a fusion protein containing FL Smad4 (lanes 2–5).
(§2) DNA-binding assays were performed essentially as described except that poly (dI-dC), 6 ug/ml, was used as the only competitor and 2% NP-40 was included in the reaction mix. For binding to PCR products derived from clones (e.g., FIG. 1), 1.0–0.5 ug protein […] and 50 ng of DNA end-labeled to 2×10^6 dpm/ug, was used. For binding to oligonucleotides, 0.3–0.5 ug of protein (~0.4 uM final concentration) and 0.5 ng of DNA end-labeled to 2×10^8 dpm/ug, was used. Specificity of binding was checked by competition with unlabeled SBE oligonucleotides and lack of competition with irrelevant oligonucleotides. Quantitation of binding was performed using an Instant Imager (Packard).

The target in a further data set is GST-Smad4/FL (Homo sapiens, UniProt Q13485 Q13485:1-552). Description: EMSA; full-length Smad4. To be noted: tags: GST N-terminal (pGEX2TK, Pharmacia); label: 32P. The method, then:
as §1, §2

The target in data set [2] is T1, GST-Smad2/MH1. Description: EMSA; did not bind the palindrome (data not shown); exact probe not stated. The note with it: tags: GST N-terminal (pGEX2TK, Pharmacia); label: 32P.
The next data set deals with Smad4 (non-fusion) (Homo sapiens, UniProt Q13485 Q13485:1-552). Description: EMSA; data not shown. The note with it: tags: none; rabbit reticulocyte lysate; label: 32P.
The target in a further data set is GST-Smad4/MH1 (Homo sapiens, UniProt Q13485 Q13485:1-276). Description: EMSA; bound to same extent as longer selected-clone probes; poly(dI-dC), 2% NP-40. The note with it: tags: GST N-terminal (pGEX2TK, Pharmacia); label: 32P. The method, then:
as §1, §2

A further data set has as its target GST-Smad3/MH1 (Homo sapiens, UniProt P84022 P84022:1-200). The data set is described as above. To be noted: tags: GST N-terminal (pGEX2TK, Pharmacia); label: 32P. How it is done: as §1, §2

T1 sequence (Q15796 1-242, one chain of several): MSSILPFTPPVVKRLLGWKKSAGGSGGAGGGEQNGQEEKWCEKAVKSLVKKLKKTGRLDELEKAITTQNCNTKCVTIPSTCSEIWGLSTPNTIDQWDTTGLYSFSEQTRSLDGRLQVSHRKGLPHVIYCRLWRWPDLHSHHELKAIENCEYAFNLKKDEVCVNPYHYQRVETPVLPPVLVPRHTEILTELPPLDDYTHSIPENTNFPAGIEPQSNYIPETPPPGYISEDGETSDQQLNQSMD
Sequence of GST-Smad3/MH1 (P84022 1-200, one chain of several): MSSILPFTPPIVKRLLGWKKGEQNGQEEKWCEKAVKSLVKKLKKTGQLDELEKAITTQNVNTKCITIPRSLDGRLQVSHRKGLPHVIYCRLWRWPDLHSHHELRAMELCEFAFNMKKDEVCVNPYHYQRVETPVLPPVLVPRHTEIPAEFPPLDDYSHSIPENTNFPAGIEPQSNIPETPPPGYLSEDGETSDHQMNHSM
Sequence of GST-Smad4/FL (Q13485 whole entry, one chain of several): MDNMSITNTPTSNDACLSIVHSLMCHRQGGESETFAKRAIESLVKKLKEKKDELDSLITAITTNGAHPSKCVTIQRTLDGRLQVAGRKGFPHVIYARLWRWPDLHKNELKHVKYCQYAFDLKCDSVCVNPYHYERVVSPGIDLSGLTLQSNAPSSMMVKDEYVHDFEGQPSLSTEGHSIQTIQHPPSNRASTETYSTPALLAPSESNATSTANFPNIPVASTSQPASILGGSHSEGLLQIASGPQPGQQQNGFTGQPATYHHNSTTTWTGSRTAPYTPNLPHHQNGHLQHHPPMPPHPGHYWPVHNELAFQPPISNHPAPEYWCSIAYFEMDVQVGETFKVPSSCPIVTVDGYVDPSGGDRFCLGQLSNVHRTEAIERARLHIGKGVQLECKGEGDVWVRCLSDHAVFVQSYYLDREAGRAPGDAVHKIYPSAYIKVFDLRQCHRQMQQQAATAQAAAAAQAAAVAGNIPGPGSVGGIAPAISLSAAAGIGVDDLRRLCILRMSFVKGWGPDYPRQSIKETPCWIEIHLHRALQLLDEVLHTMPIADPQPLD
Sequence of Smad4 (non-fusion) (Q13485 whole entry, the tested form may be a part, one chain of several): as the sequence (Q13485 whole entry, one chain of several) above
Sequence of His6-Smad4 full length (Q13485 whole entry, the tested form may be a part, one chain of several): as the sequence (Q13485 whole entry, one chain of several) above
Sequence of GST-Smad4/MH1 (Q13485 1-276, one chain of several): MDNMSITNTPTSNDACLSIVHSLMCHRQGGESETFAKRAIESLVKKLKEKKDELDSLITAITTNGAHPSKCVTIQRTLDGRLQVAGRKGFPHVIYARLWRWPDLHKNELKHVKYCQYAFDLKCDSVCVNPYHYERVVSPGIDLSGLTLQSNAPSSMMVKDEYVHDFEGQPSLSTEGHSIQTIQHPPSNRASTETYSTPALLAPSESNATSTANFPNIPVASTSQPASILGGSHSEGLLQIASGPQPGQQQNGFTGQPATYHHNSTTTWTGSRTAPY

B1: Vg probe (dsDNA)
DNA 1: TTTGTGCTTGGCTGCCGTCGCGATTCGACAACTTTGG
DNA 2: CCAAAGTTGTCGAATCGCGACGGCAGCCAAGCACAAA
On to B1, for which, in the data set with GST-Smad2/MH1 [1], the binding result is listed as “no binding”.

B2: SBE probe (26 bp) (dsDNA)
DNA 1: GGAGTATGTCTAGACTGACAATGTAC
DNA 2: GTACATTGTCAGTCTAGACATACTCC
For B2, the binding result in the data set with His6-Smad4 full length is listed as “binds”; in the data set with GST-Smad4/FL, “binds”; with GST-Smad2/MH1 [2] it was “no binding”; with Smad4 (non-fusion), “binds”; with GST-Smad4/MH1 it was “binds”; with GST-Smad3/MH1 it was “binds”.
